One molecule from patent US20230192853A1 can be followed below.

In the assay the target is human CD8 on cells (HPBALL cells, TALL1 cells, CD8+ T cells of human whole blood and PBMCs) (human) (UniProt P01732). The experiment in a line: flow cytometry of human whole blood, AF647-labeled OKT8 at 20 ng/mL against CD3 APC-Vio770.
human CD8 on cells (HPBALL cells, TALL1 cells, CD8+ T cells of human whole blood and PBMCs) (human), sequence (P01732 22-234 limits assumed): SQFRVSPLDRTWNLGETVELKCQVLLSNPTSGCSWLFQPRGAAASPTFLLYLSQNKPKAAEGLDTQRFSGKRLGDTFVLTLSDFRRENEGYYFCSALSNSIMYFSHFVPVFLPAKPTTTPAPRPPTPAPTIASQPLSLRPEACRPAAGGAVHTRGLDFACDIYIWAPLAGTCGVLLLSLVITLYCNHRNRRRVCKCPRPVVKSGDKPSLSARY

B1: OKT8 anti-CD8 IgG labeled with ALEXA FLUOR 647 (antibody, from another filing, V domains shown)
VH: EVQLQQSGAELVKPGASVKLSCTASGFNIKDTYIHFVRQRPEQGLEWIGRIDPANDNTLYASKFQGKATITADTSSNTAYMHLCSLTSGDTAVYYCGRGYGYYVFDHWGQGTTLTVSS
VL: DVQINQSPSFLAASPGETITINCRTSRSISQYLAWYQEKPGKTNKLLIYSGSTLQSGIPSRFSGSGSGTDFTLTISGLEPEDFAMYYCQQHNENPLTFGAGTKLELK
As for B1, the share of events in Q2 (CD3 positive, mAb/VHH AF647 positive) was determined as 19.7% and the share of events in Q3 (CD3 negative, mAb/VHH AF647 positive) was determined as 0.73%.
